The target of experiment [1] is His6-GapR1-69 (truncated protein lacking the entire Helix 3) (Caulobacter crescentus). The experiment is described as follows: SEC + cross-linking.
Experiment [2] deals with His6-GapR1-76 (truncated protein lacking only the hydrophobic patch of Helix 3) (Caulobacter crescentus). The experiment is described as follows: SEC + cross-linking.
In experiment [3] the target is His6-GapR1-89 (full-length WT GapR), purified (Caulobacter crescentus). The experiment is described as follows: SEC + cross-linking.
For experiment [4], the target named is untagged GapR1-89 (Caulobacter crescentus).

Drawing on doi:10.1101/804138, this text covers stoichiometry N for 4 substances.

By stoichiometry N is commonly meant a count of units in the complex or per binding partner.

“His6-GapR1-69 (truncated protein lacking the entire Helix 3) (domain or fragment)”: the stoichiometry N in experiment [1] is 2.

With “His6-GapR1-76 (truncated protein lacking only the hydrophobic patch of Helix 3) (domain or fragment)”, the stoichiometry N in experiment [2] stood at 2.

Take “His6-GapR1-89 (full-length WT GapR), purified (natural protein)”: in experiment [3], the stoichiometry N came to 4.

untagged GapR1-89 (natural protein) returned a stoichiometry N in experiment [4] of 4.
